Results on 18 sequences are retold here after the DeepSol protein solubility set.

The nature of this data set: soluble on expression in E. coli; label from the status in PepcDB or PDB records.
“MATIKLKFRPSTVQGKAGTLCYQLCHRQENRQITTDMRIFPEWWNETKRELVAVPGNERVLTAYRKRAEKEMRDIREIIRELDCSGETYTLSEILNRYRSLPSEPGFLYYMKKEMETLWENGQYGTSRNYRRALNSFSAFLDGDDIPFSSLDSALACRYESWLWQQKVARNSSSFYMRILRAVYNKAVKQGLAVQTFPFREVYTGVARTSKRAVDEETIRKLQRLDLSGSPALALSRDMFVFSYCARGMAFVDMAYLKKEDVGGGRITYYRHKTGQYLTLRIEPCMVTILERYGRTCPESPYLFPILTDEQPELAYRQYRTGLNYHNRKLKRLGKLLGEPLPLSSYTPRHSWATAARNHDVPIAVISAGMGHSSERTTLIYLDSLDNAIIDNANEKILKGLNDTISM”: the “soluble on expression in E. coli” value was “not soluble”.

As for “MSELSQLSPQPLWDIFAKICSIPHPSYHEEALAAHILEWAKEKGIYAERDQVGNILLRKAATAGMENRKPVVLQAHLDMVPQKNNDTVHDFTTDPIQPYVDGEWLKARGTTLGADNGIGMASALAVLADPSVEHGPLEVLLTMTEEAGMDGAFGLQPNWLQGEILINTDSEEEGEIYMGCAGGIDFITRLPLVREVPPAGYQTLKLTIKGLKGGHSGGDIHLGLGNANKLLARFLFEQAEALDIRILDLNGGTLRNAIPREAFATLSLPAANVEQLKTLSQDYLAVLKNELSAVEKNLTVLVEANDSNEHPLTQDSRDRLLGLLNATPNGVIRMSDDVKGVVETSLNLGVVTMEDDHAEIICLIRSLIDSGKDAVVGTLTALGQLAGAKTSPKGGYPGWQPDAHSPVMALVRETYQKQFNKTPNIMVIHAGLECGLFKKPYPDMDMVSIGPTITGPHSPDEQVHIGSVDLYWKLLTELLKAIPPRALEHHHHHH”, the “soluble on expression in E. coli” value is “soluble”.

In the case of “MSLKIAIVGGPTAVGKTDIMIEVCEEIGAEIISMDSRQIYRYMDIGTAKPTPEQRKRVLHHMIDIIDPDEYYNAFMYRKDSLRAMEDVLRRGKIPVYVGGTGLYADALVRGIFEGVPADENIRKELRELERREPGILRKMLEELDPEAATRIHPNDLKRTIRALEVYMKTGRRISELQKEAKGDDRFFIIVLTRERYELYERINKRVDKMIEMGLVDEVKRLLGMGYSKDLNSMKTIGYKEVIDYLEGKYDFDKMVHLIKRNTRHFARRQIIWFKRYKEAVWYNLTFEDVGEVKEKLKKLIVENFSVEGHHHHHH”, the “soluble on expression in E. coli” value is “soluble”.

As for “MIVIFVDFDYFFAQVEEVLNPQYKGKPLVVCVYSGRTKTSGAVATANYEARKLGVKAGMPIIKAMQIAPSAIYVPMRKPIYEAFSNRIMNLLNKHADKIEVASIDEAYLDVTNKVEGNFENGIELARKIKQEILEKEKITVTVGVAPNKILAKIIADKSKPNGLGVIRPTEVQDFLNELDIDEIPGIGSVLARRLNELGIQKLRDILSKNYNELEKITGKAKALYLLKLAQNKYSEPVENKSKIPHGRYLTLPYNTRDVKVILPYLKKAINEAYNKVNGIPMRITVIAIMEDLDILSKGKKFKHGISIDNAYKVAEDLLRELLVRDKRRNVRRIGVKLDNIIINKTNLSDFFDI”, the “soluble on expression in E. coli” value was “soluble”.

As for “MSVINKIVARRTQLSQSGRLVGDWIVENAEKAAQLTSQELAAQVKVSQSSIVKFTQRIGFKGYSEFKLALNEEIGRKHAMQSTPLHSDILADDPIAVISQKLVKAKTDAMFQTTNALSYEACHQAVKWLSEARRVQVVGIGGSALTAKDLSFKLLKLGITALSEQDSHVQIAVARTLSSEDVQIAISYSGERKEILVAAEAAKEQGAKVIALSAPGRSRLRGIADITFDTIANETEHRSSSIASRTAQNVITDLLFIILVQQRDESARQLISDISTDIKQILT”, the “soluble on expression in E. coli” value is listed as “not soluble”.

On to “QLFSNNLLQENAHKYVREVIGSIPNTQVIRDQLLEENNRKHIEVVLIGATVSPAQIDSAKTKLSSYGLSGVELNIKQGFGYEQEETDVNELKSVLLKDLYDNGEKIIRNQQRQIDSLRNVLNFYNRFSSMESEIAQELQ”, for which the “soluble on expression in E. coli” value is given as “not soluble”.

As to “MWQLKKEQNVPIYRSIMEMIVQKIQTGELLPGEKIPSERKLAEYLSVNRSTVVHALDELVDLGWIVRKRGSGTIVNEGKWGVMMTPRTDWHRYLEQNVFKQVHPLVTEIELRAKQNLPTDLDMYTGELPLDLIPSFDFPALNWKQFLKEEAQDELGYLPLRKEIQAITATEYQLHLPSESLLLTSGAQQALFLVLQVLLRQGDSVAVEDPSFFYALPIFQAAGVRLFGVPMTEEGIDLEALEQTIRQHRIKMVMVNPSFQNPTGTVMPLRKREQLVKVCQTYQVPILEDDVFGQLSFIPKTEIPPLKKLDPDNVLYIGSLSKILGSTTKIGWLSAPASVTKQIAEARKMMDVSLSIFPQMLAKMAIEDPSFSEKITLLNKQVEQRATAVYQVFKSLSEWEVSPVKGGFYLWAHWRQGALKPEDWQVFLREGVLVAPSVAFSEKRGSIRLNCSRISPEEMPLFCERMVRITRQLSENRQTKIEQ”, the “soluble on expression in E. coli” value is given as “not soluble”.

As to “MQDRCPHQDHRSIPTIMPDLEPDTVSALEAPEFAPAQFVRWFREVAPYVHAFRGKTFVVAFGGELVQAGALNVLVQDLSLLSALGIHLVLVHGSRPQVNEQLRLKGYTQQFGRGLAPTDPAALECAKEAAGEIRLDIEAAFSQGLPNTPMSHSHIRVLSGNFVTARPTGVVDGIDYKHTGQVRKIDVDALKFAIEQGSVVLLSPLGFSPTGDAFNLAMEDLATSVAVALRAEKLIFLSGEPGVLDGNGAVDTELARVDADALLARGELDEDTTYFLQHASLAVKRGVARAHLVPYALDGSVLLEIFTHDGVGTMVVEDTLDDLRAATLDDVGAILSLIEPLETDGTLVPRPRSAIERDVERFTVLEHDGVIYGCAALYPFPEDQMAEMACLIVHPEWQGSGEGEILLRHMESRARASGARRLFVLTTRTSHWFMKRGFVRGGVADLPRDKQNNYNRSRNSLVFIKKL”, the “soluble on expression in E. coli” value is listed as “not soluble”.

As for “MAHHHHHHMDKIKSWLGFNKKIVFTENKFLLRNVNDQESLQAENVRAEDYPIPEKYLEDPDKIPKYYVFQSNMVTDEDLQPGMLRQLEVDKRLTLPTRTHISFLVTATDVIHSWSIPSLGIKADAIPGRLHKITTFILREGVYYGQCSEMCGTLHGFMPIVVEAVSPEAYAAHAKKYYKE”, the “soluble on expression in E. coli” value was “not soluble”.

“MLVAERHEKIIALVTEKGSVRVSELSQLFNVTEETIRRDLEKLESERKLQRSHGGAVSIKEDTEAPYFEREIRNVNEKQAVAAQAVTYVTTNDRIILDASTTAWYMAKRLPDVPLTVLTNSMKVAMELAKREKITVITVGGTLLRKSLSFVGPQTNQTLELYHVNKAFISCQGVHAKRGISDSNEMQALVKQKMIDISDHVFLLADHTKFGKQAFSRITSMETIDTIITDSKTSEEQISDFQELEMDVIRALEHHHHHH”: the “soluble on expression in E. coli” value is recorded as “soluble”.

Regarding “MGSDKIHHHHHHKVEGNGNIITKEISVDNYSEIELGGNIEYSGNNFWGNRSNKKFPVFKYTHGRSASLKITIDENLFPLLSIKSNNGRLAIRIQDGTRIKPTQYVIEGSSKTLKYLKTSGPMDFEAQNAFSEDQLEIKISGSSDVKFPHNVKLRLGEFSVSGSGDLVFEDLDCKNLTSKVSGSGDITLKGKADEARYSVSGSGDIKAYDLSVNDLSCSVSGSGDARVYAKDNMNLSVSGSGDIRYKGPANVNKSKSGSGSIQGAN”, the “soluble on expression in E. coli” value is “not soluble”.

Turning to “MNEFKYNIGYALSGGFIKGFAHLGIMQALHEHGIRPEILSGVSAGALAAVFYADGKEPYHIVELFEHHSFKELTTFSINKQGLLKLDSFIDFLNSNLESKTIEELKIPTIITATDLDHGRIVSFKKGKIAERLAASCCMPILFAPIRINNTYYVDGGILMNLPVSPIRKECEKVIALNVDPLVADEYSKNVVSIALRAYHFIFQANTLPQKGIADLLIESYGLEEYSNRELERAEEIFEKGYNTATELLDRLLLENGTIWR”, the “soluble on expression in E. coli” value is “not soluble”.

“MGSDKIHHHHHHMHDVLIIGSGVIGMSIARHLSATHLDVAVIDRDVPGKHASYKAGGMLGAQNEFTEDSDLFQLAIESRAMFPQLSKSLLDETGIDIQFKNSGLIKIANEHDDISSIKRQYQFLNSQDRSVKQLSDDDLLQLTHGEVKPSYAAIHIPHDGQINAHHYTLALLESMKLRDIKRYESTEVTSIERHNGYYSVKTDQSSTIEAHKIIVAGGAWSSQLLTQYHLQRQVIGVKGEVILLENNDLSLTETLFMTNGCYIVPKQPNRFLIGATSEFNNYSVGTTDEGMDWLLRHAYHRVPQLKDSHILKKWSGVRPYTEKEMPVMDQIDDGLYVISGHYRNGILLSPIIGRDIANWLLSGIKPSRYSSFTVTRRNNHEVYH”: the “soluble on expression in E. coli” value is “not soluble”.

Take “TTHFTVADRWGNVVSYTTTIEQLFGTGIMVPDYGVILNNELTDFDAIPGGANEVQPNKRPLSSMTPTILFKDDKPVLTVGSPGGATIISSVLQTILYHIEYGMELKAAVEEPRIYTNSMSSYRYEDGVPKDVLSKLNGMGHKFGTSPVDIGNVQSISIDHENGTFKGVADSSRNGAAIGINLKRKLEHHHHHH”: the “soluble on expression in E. coli” value is recorded as “soluble”.

Consider “MGSDKIHHHHHHVSGAILSGPEQKPDQDDIETALFRHLAQQGWCLSAPTPLAGGRSNHVWRAGDKVVKLYRSDAHNPLFANDPDRERAMLRALSGTGMAPRFLAHGLWQGQAWLMYTHVCGARWESDPSHVARILSIVHDQAKPRGLPFGCNGSEALAQQTRQIVSAASQGTTLLDRAPQGVVPPTSQLCLIHGDPVPGNIVAHNGTLALIDWQCPQLGDPAEDLALFLSPAMQLAYRGRVLSRQEEAEFVTAYPHPRVVARYYALKPWFHWRMAAYCAWRGETDARDLELAEI”, for which the “soluble on expression in E. coli” value is on record as “not soluble”.

For “MGSDKIHHHHHHMMNTLAHPPGTDDATLSGMLSHFRLLEPVFDAMPDVVFFVKDAEARYALVNRTLASRCGFKEKTALLGRTAEDVFPRRFGRIYTAQDKAIINVGNQLIDQLELHLYPGRQPGWCLTCKQPLRNAAGKVVGLAGISRDLKADESSHPAYSRLATVVQSIQENYVQPLNLKQLAAMADMSVAQLERYFHKVFHLTPRQVLLKARLDAATALLVSHDKVTDVAALCGYTDHSAFTRQFKATVGVTPTEYRMLLHGTSRS”, the “soluble on expression in E. coli” value is on record as “not soluble”.

For the sequence “MIRWFRNFGALFKKPRGAGLMKNEQTHNLQRVVQNDITCPEEQRSTGGKGGGGGSHGGHGGSHGGSHGGHGSHGGSYGGHSGHGRSFSTSSGSSGYRGLSSGSTNTSYSKSTPRTNSGYSTGKTTKTASSSRNYSNTSSTRSTTKPSKSSYSKRSTKSTKSLNYSSSSLGSKSIEKSRRSSRKSGSRQDSVASRRQLRSVSSKPQKKYVATDMPSTVSTGRSRGRSVYRRNNVNADVSQRQSRSMSVSRGRSRNRSQNRERSPSIEKSTRSQHVSRKDAFNSHDVLSPTNRSGSVHRSHSAHHERTFEERHKTPNGVWNEMFPKGTLVMYTDGSYLKRPPTSGIGIFVGPGHELNRSQRIRGPIQDNNYAEFIAVRTALQNALKNENYRDQKVVIRTDCLNVIEALQGTRPTAFVDVKSQVEFLSKQFPKGVHFQHVYAHAGDPGNEMADLFAGQASSKSQNSFGGGQRTRSASTARGRSRERNRLRSKSNDPSFIRSRSHSIHSRK”, the “soluble on expression in E. coli” value is “not soluble”.

As to “MTTDSLSQIDTDQDEYGEEIEMASNSLGNLPDVVLQHLAPFLQWSTCRALSEVNLRFRSHFKQHLKEGQALSIKGQVSVGVGDRVNDCQNVSFLSEFYTIRVEMDDNMVVDWTLKLQSGVRTVVHRHYDGNTQTTTTKSVHLSSRDYLEKVLKWILARYQFKKIHLGVQGLAPLFSSYKGEIENVGISDEIEYLKLAEKFRPKHLTLFKPAQNTYNKGFFDLKKFPQLEELRMYGVPLDLDQLIESNISEVAADTIDKDIKLKHVRKIINNWKNGIINYKSIMISPSCSQFGIYCPHNQWSELTDHLVEANALYDNVVNIKEKIGSARYSPRSFEFEVWEADRY”, the “soluble on expression in E. coli” value is on record as “not soluble”.
